Key:
Assay in all cases: Subtype selectivity, FACS binding, transfected CHO-K1 cells
Format in all cases: cell-based
[1] = target: T1, hASIC1b (Homo sapiens, UniProt P78348)
T1 construct: expressed in transfected cells; host or cells: CHO-K1, transient
T1 sequence (P78348 1-562 isoform P78348-3): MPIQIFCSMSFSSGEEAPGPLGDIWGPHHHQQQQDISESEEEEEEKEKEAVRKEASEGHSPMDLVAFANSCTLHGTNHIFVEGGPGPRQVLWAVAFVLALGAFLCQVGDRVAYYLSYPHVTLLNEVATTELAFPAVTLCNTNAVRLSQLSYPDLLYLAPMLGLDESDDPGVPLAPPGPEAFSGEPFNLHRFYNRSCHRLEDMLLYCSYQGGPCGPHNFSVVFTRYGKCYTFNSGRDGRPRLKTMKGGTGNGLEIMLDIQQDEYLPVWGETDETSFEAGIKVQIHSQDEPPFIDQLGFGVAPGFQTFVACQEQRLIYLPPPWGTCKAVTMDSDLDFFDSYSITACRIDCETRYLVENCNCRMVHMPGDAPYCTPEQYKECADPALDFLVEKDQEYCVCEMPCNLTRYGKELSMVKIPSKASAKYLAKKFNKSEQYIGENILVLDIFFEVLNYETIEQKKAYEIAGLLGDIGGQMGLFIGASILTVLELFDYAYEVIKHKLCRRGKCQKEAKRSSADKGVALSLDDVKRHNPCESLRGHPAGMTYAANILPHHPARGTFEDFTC
Experimental: (§1) To test the species and subtype selectivity of ASC06-IgG1, vectors encoding human ASIC1b-eYFP fusion, rat ASIC1a-eYFP fusion, mouse ASIC1a-eYFP fusion, hASIC2a-eYFP fusion, hASIC2b-eYFP fusion, and hASIC3a-eYFP fusion were constructed. The CHO-K1 cells were transiently transfected with these plasmids. FACS binding assay and immunocytochemistry (ICC) were carried out to determine if ASC06-IgG1 is able to bind to the cell surface-expressed ASIC homologs and isotypes.

[2] = target: T2, hASIC2a/2b (Homo sapiens, UniProt Q16515)
T2 construct: expressed in transfected cells; host or cells: CHO-K1, transient
T2 sequence (Q16515 1-512): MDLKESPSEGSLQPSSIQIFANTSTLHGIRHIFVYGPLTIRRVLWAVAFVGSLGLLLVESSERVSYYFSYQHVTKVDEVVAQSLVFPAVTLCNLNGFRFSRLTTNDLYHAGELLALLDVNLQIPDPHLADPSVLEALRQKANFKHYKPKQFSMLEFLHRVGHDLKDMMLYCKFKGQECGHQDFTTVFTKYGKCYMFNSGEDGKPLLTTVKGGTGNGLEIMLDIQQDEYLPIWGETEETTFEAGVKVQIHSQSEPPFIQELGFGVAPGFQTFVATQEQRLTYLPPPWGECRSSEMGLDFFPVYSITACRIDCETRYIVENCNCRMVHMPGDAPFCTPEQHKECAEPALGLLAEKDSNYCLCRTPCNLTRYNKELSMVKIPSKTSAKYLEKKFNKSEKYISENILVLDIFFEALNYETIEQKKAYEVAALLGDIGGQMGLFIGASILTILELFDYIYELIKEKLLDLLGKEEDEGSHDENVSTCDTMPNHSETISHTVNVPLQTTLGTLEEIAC
T2 sequence (Q16515 1-563 isoform Q16515-2): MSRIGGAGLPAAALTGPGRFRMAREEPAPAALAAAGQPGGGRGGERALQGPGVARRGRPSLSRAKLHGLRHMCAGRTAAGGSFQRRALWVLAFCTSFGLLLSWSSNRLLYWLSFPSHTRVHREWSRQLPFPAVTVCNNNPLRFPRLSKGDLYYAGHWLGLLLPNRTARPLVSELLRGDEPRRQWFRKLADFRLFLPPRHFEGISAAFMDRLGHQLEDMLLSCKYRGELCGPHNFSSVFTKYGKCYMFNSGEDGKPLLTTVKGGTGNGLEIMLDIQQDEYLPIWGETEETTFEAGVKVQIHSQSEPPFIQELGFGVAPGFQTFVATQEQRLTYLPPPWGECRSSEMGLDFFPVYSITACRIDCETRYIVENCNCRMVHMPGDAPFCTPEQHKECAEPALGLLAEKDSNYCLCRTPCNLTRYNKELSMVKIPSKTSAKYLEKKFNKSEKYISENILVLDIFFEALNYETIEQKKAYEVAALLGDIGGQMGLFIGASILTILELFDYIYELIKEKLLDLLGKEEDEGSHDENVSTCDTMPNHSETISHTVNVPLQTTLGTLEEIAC
Experimental: as §1

[3] = target: T3, hASIC3a (Homo sapiens, UniProt Q9UHC3)
T3 construct: expressed in transfected cells; host or cells: CHO-K1, transient
T3 sequence (Q9UHC3 1-531): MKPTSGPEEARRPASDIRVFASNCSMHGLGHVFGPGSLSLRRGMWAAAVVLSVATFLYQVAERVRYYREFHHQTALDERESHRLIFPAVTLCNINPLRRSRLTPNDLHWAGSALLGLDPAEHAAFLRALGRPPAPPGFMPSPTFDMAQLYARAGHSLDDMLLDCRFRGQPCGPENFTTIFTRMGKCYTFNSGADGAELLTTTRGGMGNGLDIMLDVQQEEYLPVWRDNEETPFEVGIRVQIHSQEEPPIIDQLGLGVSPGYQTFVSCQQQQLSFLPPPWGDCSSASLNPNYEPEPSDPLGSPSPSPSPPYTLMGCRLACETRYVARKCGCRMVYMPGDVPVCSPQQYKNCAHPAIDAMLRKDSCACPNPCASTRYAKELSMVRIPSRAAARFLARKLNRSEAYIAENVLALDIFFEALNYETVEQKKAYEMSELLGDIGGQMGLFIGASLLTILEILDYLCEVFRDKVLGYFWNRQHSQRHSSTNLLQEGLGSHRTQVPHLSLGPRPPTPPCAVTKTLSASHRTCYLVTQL
Experimental: as §1

B1: ASC06-IgG1: ASC06 antibody converted into a full length IgG1 form (antibody, V domains shown)
VH: QVQLQQSGGGLVQPGGSLRLSCAASGFTFSSYAMSWVRQAPGKGLEWVSAISGSGGSTYYADSVKGRFTISRDNSKNTLYLQMNSLRAEDTAVYYCAKDSFYGYSKGDWGQGTLVTVSS
VL: QSALTQPASVSGSPGQSITISCTGTSSDVGAYNYVSWYQQQPGKAPKLMIYGVSNRPSGVSNRFSGSKSGNAASLTISGLQAEDEADYYCSSYTSSSTYVFGTGTKLTVLG
not: FACS recognition of hASIC1b [1] | FACS recognition of hASIC2a/2b [2] | FACS recognition of hASIC3a [3]
